The values below come from patent publication US20030092624A1 (YISSUM RESEARCH DEVELOPMENT COMPANY OF THE HEBREW …, published 2003).

The target in series [1] is T1, Citrate Synthase (CS), Roche Diagnostics (UniProt P00889 28-464).
T1 sequence (looked up): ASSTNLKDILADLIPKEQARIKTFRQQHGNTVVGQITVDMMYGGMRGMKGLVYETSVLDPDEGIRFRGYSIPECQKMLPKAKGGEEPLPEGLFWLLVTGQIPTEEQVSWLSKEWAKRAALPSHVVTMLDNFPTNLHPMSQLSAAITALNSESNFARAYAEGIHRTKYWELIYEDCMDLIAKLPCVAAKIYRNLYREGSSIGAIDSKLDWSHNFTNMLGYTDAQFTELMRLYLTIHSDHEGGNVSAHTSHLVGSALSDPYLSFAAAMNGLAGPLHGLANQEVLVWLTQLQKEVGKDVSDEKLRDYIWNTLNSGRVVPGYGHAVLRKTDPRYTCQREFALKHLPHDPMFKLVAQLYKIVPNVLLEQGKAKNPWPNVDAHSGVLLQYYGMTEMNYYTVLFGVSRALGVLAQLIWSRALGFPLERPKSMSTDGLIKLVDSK
The experiment in a line: cell-based or functional assay.

Series [2] deals with Horseradish Peroxidase (HRP), Sigma (horseradish) (UniProt P00433). The experiment in a line: cell-based or functional assay.
For series [3], the target named is alpha-amylase (Sigma, A 6380). The experiment in a line: cell-based or functional assay.
For series [4], the target named is superoxide dismutase (SOD), cosmetic grade ('dismutin', Pentapharm Ltd.). The series can be described thus: cell-based or functional assay.
In series [5] the target is T2, Horseradish Peroxidase (HRP), Sigma (horseradish, UniProt P00433 31-338).
T2 sequence (looked up): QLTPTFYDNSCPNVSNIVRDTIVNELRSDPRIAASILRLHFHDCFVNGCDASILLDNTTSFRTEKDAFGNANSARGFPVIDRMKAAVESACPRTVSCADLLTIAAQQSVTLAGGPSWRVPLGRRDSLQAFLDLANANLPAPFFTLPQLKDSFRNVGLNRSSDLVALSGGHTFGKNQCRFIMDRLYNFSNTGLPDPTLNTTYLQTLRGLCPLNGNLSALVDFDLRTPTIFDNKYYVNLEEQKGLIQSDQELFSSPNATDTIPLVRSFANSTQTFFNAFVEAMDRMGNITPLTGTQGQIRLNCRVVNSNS
The series can be described thus: cell-based or functional assay.

Series [6] concerns the molecule itself. The experiment in a line: SDS-tricine PAGE; self-association of SP1 monomers.

As for “recombinant CBD-SP1 fusion protein (32.4 kDa monomer) expressed in E. coli from pET-CBD-180-SP1”, in series [1], the remaining CS enzymatic activity at 43° C. after 40 minutes, CS:CBD-SP1 monomeric molar ratio of 1:20 came out at 73% and the remaining CS enzymatic activity at 43° C. after 40 minutes, CS:CBD-SP1 ratio of 1:5 was found to be 33%.

B1: native SP1 protein purified from aspen plants (116 kDa oligomer / 12.4 kDa monomer) (other)
chain: MATRTPKLVKHTLLTRFKDEITREQIDNYINDYTNLLDLIPSMKSFNWGTDLGMESAELNRGYTHAFESTFESKSGLQEYLDSAALAAFAEGFLPTLSQRLVIDYFLY
notes: Homo-oligomer; On Western blots the protein was separated by SDS-PAGE first; also called purified SP1; plant SP1 protein
B1 yielded an HRP activity rescued after room temperature inactivation in series [2] of 10%. In series [3], this molecule displayed an alpha-amylase activity after 2 hours in 2 M CaCl2 of 50%, an increase in alpha-amylase activity 2 hours after SP1 addition of 60% and a remaining alpha-amylase activity after one-week incubation at room temperature of more than 40%. Further, the SOD activity compared to SP1 untreated SOD in series [4] was 60%. Besides, in series [1], the “protection of CS activity against heat inactivation at 43° C., CS:SP1 ratio of 1:5, 40 minutes” value turned out to be 22%; the “remaining CS enzymatic activity at 43° C., CS:SP1 ratio of 1:50, 15 minutes” value was approximately 100%; the “remaining CS enzymatic activity at 43° C., CS:SP1 ratio of 1:50, 40 minutes” value was not below 93%. Also, in series [5], the “protection of HRP activity at 55° C. compared with BSA at 1:300” value is approximately 3 fold; the “protection of HRP activity at 55° C., HRP:SP1 molar ratio of 1:300, 60 minutes” value was more than 60%; the “remaining HRP activity at 55° C., HRP:SP1 molar ratio of 1:300, 2 hours” value was found to be 53%. Besides, in series [6], the binding result was “binds”.
